Measured values from article PMC10275869 (Nature Communications, 2023).

B1: 5B3 (human IgG1) (antibody, V domains shown)
VH: EVQLVESGGGLVKPGGSLKLSCAASGFTFSSYDMSWVRQTPEKRLEWVAMISSGGSYSYYPDSVKGRFTISRDNAKNTLYLQMSSLRSEDTAMYYCARQGDYAWFAYWGQGTLVTVSS
VL: DIQMTQSPASQSASLGESVTITCLASQTIGTWLAWYQQKPGKSPQLLIYAATSLADGVPSRFSGSGSGTKFSFKISSLQAEDFVSYYCQQFYSTPFTFGGGTKLEIK
B2: mAb66 (human IgG1) (antibody, V domains shown)
VH: ETGSGGGLVKPGGTLTLTCKASGFTLSSYWMCWVRQAPGKGLELIACLYTNGATTWYASWVNGRFAISRSTSRNTVDLNMTSLTAADTATYFCARGSGSGWSWFNIWGPGTLVTVSS
VL: TGVMTQTPASVEAAVGGTVTIKCQASQNIISSLAWYQQKPGQRPKLLIYYASTLASGVPSRFKGSGSGTQFTLTISDLECADAATYYCQSYYYSGITYGNAFGGGTEVVVK
B3: 12B2 (human IgG1) (antibody, V domains shown)
VH: QVQLKESGPGLVAPSQSLSITCTVSGFSLASYGVHWVRQPPGKGLEWLGVIWTGGSTNYNSALMSRLSINRDNSKSQVFLKLNSLQTDDTAIYYCARDRGYGYGGFAYWGQGTLVTVSA
VL: DIQMTQSPASLSASVGETVTITCRASENIYSYLAWYQHKQGKSPQLLVYNAKSLAEGVPSRFSGSGSGTQFSLKINSLQPEDFGSYYCQHHYGTPWTFGGGTKLEIK
B4: 1F5 (human IgG1) (antibody, V domains shown)
VH: DVQLQESGPGLVKPSQSLSLTCSVTGYSITSDYYWNWIRQFPGNKLEWMGYVTYDGSNNYNPSLKNRISITRDSSKNQFFLKLNSVISEDTATYYCARFGSSYWAMDYWGQGTSLTVSS
VL: QIVLTQSPAIMSASLGEAITLTCSASSSVSYMHWYQQKSGTSPKLLIYSTSNLASGVPSRFSGSGSGTFYSLTISSVEAEDAADYYCHQWYSYPWTFGGGTKLEIK

Biological target: MojV F clamp2 (prefusion Mòjiāng virus fusion glycoprotein ectodomain stabilised with the clamp2 molecular … (Mòjiāng virus))
Test: ELISA
Settings: both partners purified

Binder | binding result
B1 | no binding (tested: 50 μg/mL)
B2 | no binding (tested: 50 μg/mL)
B3 | no binding (tested: 50 μg/mL)
B4 | no binding (tested: 50 μg/mL)
